Results published in PMC7002338.

Test system: CgpS (Corynebacterium glutamicum ATCC 13032 (strain of the protein implied?))
Experiment: SPR
Conditions: SPR: biotinylated DNA on streptavidin chip, CgpS 180 s association, 420 s dissociation, EMSA: 14 nM DNA, buffer, salt, pH and temperature in Text S1, not in …

## Pcg1999
  Kd: 58 nM

## Plys (SPR)
  Kd: 11 nM

## Pcg3336 (control)
Very fast dissociation
  Kd: 381 nM
